Data: patent US20200270351A1 (Janssen / Centocor, published 2020)

Target: T1, mutant L858R/T790M EGFR on NCI-H1975 cells (human, UniProt P00533 25-1210)
T1 construct: whole, on cells; these cells carry both this EGFR and wild type c-Met; also called H1975 target cells; HER1
Assay: confocal imaging of AF647-labeled antibody in co-culture of M1 or M2c macrophages and H1975 target cells (data not shown)
Protocol: Differentiated macrophages were harvested and plated onto CellCarrier96 ultra plates at 1,00,000 cells/well (Perkin-Elmer; Cat#6055302) overnight. Assays were performed using both adhered and non-adhered target cells. For assays with adhered target cells, the H1975 NucLight Red cells were plated at 20,000/well, adhered for 4 hours, then treated with labeled Ab cocktail for 1 hour at 4° C.

| binding result | Binder |
| --- | --- |
| binds | JNJ-61186372 (JNJ-372), IgG1 anti-EGFR/c-Met bispecific antibody (bispecific antibody, Produced in a cell line incorporating low levels (<9%) of fucose) heavy 1: not shown light 1: not shown heavy 2: not shown light 2: DIQMTQSPSSVSASVGDRVTITCRASQGISNWLAWFQHKPGKAPKLLIYAASSLLSGVPSRFSGSGSGTDFTLTISSLQPEDFATYYCQQANSFPITFGQGTRLEIKRTVAAPSVFIFPPSDEQLKSGTASVVCLLNNFYPREAKVQWKVDNALQSGNSQESVTEQDSKDSTYSLSSTLTLSKADYEKHKVYACEVTHQGLSSPVTKSFNRGEC |
| binds | JNJ-372.IgG2sigma (Fc effector silent JNJ-372) (bispecific antibody, V domains shown, Used AF488- or AF647-labeled in the assays; also called IgG2σ; EGFR/cMet IgG2G Ab) VH 1: QVQLVESGGGVVQPGRSLRLSCAASGFTFSTYGMHWVRQAPGKGLEWVAVIWDDGSYKYYGDSVKGRFTISRDNSKNTLYLQMNSLRAEDTAVYYCARDGITMVRGVMKDYFDYWGQGTLVTVSS VL 1: AIQLTQSPSSLSASVGDRVTITCRASQDISSALVWYQQKPGKAPKLLIYDASSLESGVPSRFSGSESGTDFTLTISSLQPEDFATYYCQQFNSYPLTFGGGTKVEIK VH 2: QVQLVQSGAEVKKPGASVKVSCETSGYTFTSYGISWVRQAPGHGLEWMGWISAYNGYTNYAQKLQGRVTMTTDTSTSTAYMELRSLRSDDTAVYYCARDLRGTNYFDYWGQGTLVTVSS VL 2: DIQMTQSPSSVSASVGDRVTITCRASQGISNWLAWFQHKPGKAPKLLIYAASSLLSGVPSRFSGSGSGTDFTLTISSLQPEDFATYYCQQANSFPITFGQGTRLEIK |
